The text below walks through data of patent US5389611A, “Lactoferrin hydrolyzate for use as an antibacterial agent and as a tyrosinase inhibition agent” (priority 1990, dated 1995).

For test [1], the system named is Escherichia coli. Description: Antibacterial activity: proliferation inhibition of E. coli in liquid culture medium (Tests 1, 3, 6). The format is cell-based. The method, then:
From the stock culture of Escherichia coli, a loop of bacterial cells was taken out with a platinum loop and smeared onto a standard plate agar medium (by Nissui Seiyaku), followed by incubation at 35° C. for 16 hours under aerobic condition.
Basic culture medium (liquid culture medium) was prepared by dissolving bactocasitone (by Difco) into purified water in 1% concentration, adjusting the pH of the resultant solution to 7.0 with 1M sodium hydroxide, then sterilizing at 115° C. for 15 minutes.
The solutions of LF hydrolyzates previously prepared in item 1-1) were respectively filtered with membrane filters (by Advantech) to remove microorganisms which might be included therein. Different quantities of each of filtered solutions of LF hydrolyzates were respectively added to a portion of the basic culture medium to give 6 lots of test culture media containing LF hydrolyzate in different concentrations for each LF hydrolyzate having different decomposition rates as shown in Table 1. Control culture media containing unhydrolyzed LF in different concentrations were also prepared in the same manner as in the test culture media.
To each of the test and control culture media, the pre-culture was inoculated in 1% concentration, followed by incubation at 35° C. for 16 hours. The proliferation inhibition rate was determined by measuring the optical density of the culture broth in the same manner as previously described and calculating in accordance with the following formula:
proliferation inhibition rate (%)=100-(A/B×100)
(wherein A denotes the difference of optical densities of the test culture media before and after 16 hours incubation, B denotes the difference of optical densities of the control culture media before and after 16 hours incubation respectively) and
Antibacterial activity against E. coli of LF hydrolyzate having a 12% decomposition rate prepared in the same manner as in Example 2 (hydrolysis by citric acid) and that of unhydrolyzed LF were determined in the same manner as in Test 1.
Aqueous solutions of 10 kinds of LF hydrolyzate (prepared using different enzymes) and an aqueous solution of unhydrolyzed LF prepared in the same manner as in test 2 were filtered with membrane filters (by Advantec) to remove bacterial cells which might be contaminated therein. Each of the solutions was added to basic culture media (the same with that in Test 1) in different concentrations (50, 100, 250, 500, and 1000 ppm) to prepare test cultures and control cultures.
Antibacterial activity was tested for these cultures in the same manner as in test 1.

Test [2] has as its system Escherichia coli. Kind of test: Antibacterial activity against E. coli in the presence of iron (Test 8). The format is cell-based. As to conditions: 0.01 mM of ferrous sulfate.
The test system of the next test is viable bacterial count. Description: Viable bacterial count of treated sliced vegetables (Test 4). As to conditions: dipped in 1% aqueous solution 30 seconds, preserved at 5° C. The method, then:
A quantity of sliced vegetables sold in the market was divided into three parts. […] Each of the treated samples was drained then preserved at 5° C. for observation. Viable bacterial count of the samples was periodically determined by the conventional method.

Test [3] in a line: Preservation of cow's milk, change in appearance (Test 7). The settings on record: cow's milk at 25° C. The method, then:
The antibacterial activity of hydrolyzates of iron saturated LF was tested in the same manner as in test 5, except that hydrolyzates of iron saturated LF prepared in the same manner as in Example 5 and cow's milk sold in the market were used.
Each of three kinds of samples, to one of which is added hydrolyzate of Fe-LF, to another one of which is added unhydrolyzed LF and the third of which is added nothing, were respectively distributed into 3 test tubes (in total 9) and preserved at 25° C. for observation of any change in appearance.

The mark [4] stands for this setting: preservation day 10, 3 test tubes.
Setting [5] is: preservation day 14, 3 test tubes.

B1: lactoferrin (protein, UniProt P24627 20-708, looked up)
Lactotransferrin: APRKNVRWCTISQPEWFKCRRWQWRMKKLGAPSITCVRRAFALECIRAIAEKKADAVTLDGGMVFEAGRDPYKLRPVAAEIYGTKESPQTHYYAVAVVKKGSNFQLDQLQGRKSCHTGLGRSAGWIIPMGILRPYLSWTESLEPLQGAVAKFFSASCVPCIDRQAYPNLCQLCKGEGENQCACSSREPYFGYSGAFKCLQDGAGDVAFVKETTVFENLPEKADRDQYELLCLNNSRAPVDAFKECHLAQVPSHAVVARSVDGKEDLIWKLLSKAQEKFGKNKSRSFQLFGSPPGQRDLLFKDSALGFLRIPSKVDSALYLGSRYLTTLKNLRETAEEVKARYTRVVWCAVGPEEQKKCQQWSQQSGQNVTCATASTTDDCIVLVLKGEADALNLDGGYIYTAGKCGLVPVLAENRKSSKHSSLDCVLRPTEGYLAVAVVKKANEGLTWNSLKDKKSCHTAVDRTAGWNIPMGLIVNQTGSCAFDEFFSQSCAPGADPKSRLCALCAGDDQGLDKCVPNSKEKYYGYTGAFRCLAEDVGDVAFVKNDTVWENTNGESTADWAKNLNREDFRLLCLDGTRKPVTEAQSCHLAVAPNHAVVSRSDRAAHVKQVLLHQQALFGKNGKNCPDKFCLFKSETKNLLFNDNTECLAKLGGRPTYEEYLGTEYVTAIANLKKCSTSPLLEACAFLTR
notes: Native LF sold in the market (by Oleofina, Belgium), not hydrolyzed; control of Tests 1, 3-6, 8
Consider B1, for which the “quantity added at which antibacterial activity was shown” value with Escherichia coli [1] (Table 1) was “more than 250 ppm”. The proliferation inhibition rate result is “complete inhibition could not be achieved” in the test on Escherichia coli [1] (Table 1, concentration 1000 ppm); 0% in the test with Escherichia coli [1] (Table 3, quantity added 25 ppm); 0% in the test on Escherichia coli [1] (Table 3, quantity added 50 ppm); 5% in the test with Escherichia coli [1] (Table 3, quantity added 100 ppm); 16% in the test on Escherichia coli [1] (Table 3, quantity added 250 ppm); 74% in the test on Escherichia coli [1] (Table 3, quantity added 500 ppm). The proliferation inhibition rate in the test on Escherichia coli [1] (Table 3, quantity added 1000 ppm) is on record as 85%; with Escherichia coli [1] (Table 5, quantity 250 ppm), “weak antibacterial activity”; with Escherichia coli [1] (Table 5, quantity 1000 ppm) it was “complete inhibition against proliferation of E. coli could not be achieved”. Further, the “antibacterial activity in the presence of ferrous sulfate, in words” value with Escherichia coli [2] is listed as “deactivated”. In addition, the viable bacterial counts in the test with viable bacterial count (0 hours) is on record as 5.1 × 10^3 per 1 g of sliced vegetables; in the test on viable bacterial count (12 hours), 2.0 × 10^4 per 1 g of sliced vegetables; with viable bacterial count (24 hours) it was 1.8 × 10^5 per 1 g of sliced vegetables; in the test with viable bacterial count (36 hours), 2.2 × 10^5 per 1 g of sliced vegetables. The “change in appearance of milk” value in test [3] (setting [4]) is “did not show any change in appearance”; in test [3] (setting [5]), “all of the samples showed coagulation”.

B2: unhydrolyzed Fe-LF: Comparison sample of Test 7; table says unhydrolyzed Fe-LF ?, text says unhydrolyzed LF (protein, UniProt P24627 20-708, looked up)
Lactotransferrin: B1 Lactotransferrin
modifications: iron-saturated
Turning to B2, the “change in appearance of milk” value is “no change” in test [3] (preservation day 0, 3 test tubes); “no change” in test [3] (preservation day 3, 3 test tubes); “no change” in test [3] (preservation day 7, 3 test tubes); “no change” in test [3] (setting [4]); “coagulated” in test [3] (setting [5]).
